{"source": "patent US20260242478A1", "about": "(published 2026)", "binders": {"B1": {"name": "Phage-3895 (peptide)", "peptide": "EWIMCTPPWMCHGF", "notes": "tested as crude clonal phage supernatant"}, "B2": {"name": "Phage-3928 (Peptide-180 library clone) (peptide)", "peptide": "WDLLCSPPWMCAGM", "notes": "Tested as clonal phage supernatant; not shown: fused to the pIII filament protein of the bacteriophage"}, "B3": {"name": "Phage-3894 (peptide)", "peptide": "DLQMCLPKWMCVGF", "notes": "as for B1"}, "B4": {"name": "Phage-3891 (peptide)", "peptide": "VVYTCVPSWMCTGL", "notes": "as for B1"}, "B5": {"name": "Phage-3925 (Peptide-180 library clone) (peptide)", "peptide": "NERFCEPAWMCHGF", "notes": "as for B2"}, "B6": {"name": "Phage-3897 (peptide)", "peptide": "LTLKCAPAWMCNGF", "notes": "as for B1"}, "B7": {"name": "Phage-3932 (Peptide-180 library clone) (peptide)", "peptide": "LNVECVPQWMCDGF", "notes": "as for B2"}, "B8": {"name": "Phage-3896 (peptide)", "peptide": "PDVHCVPRWMCDGL", "notes": "as for B1"}, "B9": {"name": "Phage-3888 (peptide)", "peptide": "LQIRCQPVWMCHGF", "notes": "as for B1"}, "B10": {"name": "Phage-3926 (Peptide-180 library clone) (peptide)", "peptide": "VERFCEPAWMCIGL", "notes": "as for B2"}, "B11": {"name": "Phage-3889 (peptide)", "peptide": "IDTLCVPWWMCSGF", "notes": "as for B1"}, "B12": {"name": "Phage-3938 (Peptide-180 library clone) (peptide)", "peptide": "MQDFCKPLWMCSGF", "notes": "as for B2"}}, "key": {"[1]": {"target": "T1, 006 PSMA Fab (biotinylated (site not stated))", "T1 construct": "also called Anti-PSMA Fab", "test": "clonal phage ELISA; biotinylated PSMA Fab on neutravidin plate pre-incubated with PSMA antigen as competitor, anti-M13-HRP detection"}, "[2]": {"target": "T1, 006 PSMA Fab", "test": "clonal phage ELISA; biotinylated PSMA Fab on neutravidin plate, blocking buffer alone, anti-M13-HRP detection;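 further: crude clonal phage supernatants added without washing to wells preincubated with PSMA antigen or with blocking buffer alone, briefly incubated, then washed before bound phage detection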", "experimental": "(§1) Clonal phage were harvested as crude supernatants and screened via standard ELISAs. […] Prior to the addition of clonal phage. wells were incubated with blocking buffer and PSMA antigen or blocking buffer alone. Without washing or aspirating, clonal phage supernatants were then added to the wells and incubated for a short time. Wells were then washed followed by detection of bound phage using a horse radish conjugated anti-M13 antibody."}, "[3]": {"target": "T2, 006 PSMA Fab", "T2 construct": "In the phage ELISA the PSMA Fab was biotinylated and captured on neutravidin coated plates; also called Anti-PSMA Fab", "test": "clonal phage ELISA; biotinylated PSMA Fab captured on neutravidin plate, wells pre-incubated with PSMA antigen as competitor; bound phage detected with anti-M13 HRP", "experimental": "as §1"}, "[4]": {"target": "T2, 006 PSMA Fab", "test": "clonal phage ELISA; biotinylated PSMA Fab captured on neutravidin plate, blocking buffer alone; bound phage detected with anti-M13 HRP", "experimental": "as §1"}, "[5]": {"target": "T3, PSMA Fab (006 PSMA Fab)", "T3 construct": "also called Anti-PSMA Fab; anti-PSMA Fab", "test": "phage binding ELISA; biotinylated PSMA Fab on neutravidin plate, clonal phage supernatant, anti-M13 HRP detection;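 further: wells were preincubated with blocking buffer either containing PSMA antigen or without it before crude phage supernatant was added, briefly incubated, then washed prior to detection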", "experimental": "as §1"}, "[6]": {"target": "T4, PSMA Fab (006 PSMA Fab)", "T4 construct": "also called Anti-PSMA Fab", "test": "phage ELISA on captured PSMA Fab pre-incubated with the competitor PSMA antigen, anti-M13-HRP detection", "experimental": "as §1"}, "[7]": {"target": "T4, PSMA Fab (006 PSMA Fab)", "test": "clonal phage supernatant on biotinylated PSMA Fab captured on neutravidin plate, anti-M13-HRP detection;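 further: before phage were added, wells received PSMA antigen in blocking buffer or blocking buffer alone, with no wash in between, followed by a short phage incubation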", "experimental": "as §1"}}}
{"binder": "B1", "values": [{"measurement": "Phage binding ELISA signal, Anti-PSMA Fab in the presence of PSMA antigen", "setting": "[1]", "value": 0.0638}, {"measurement": "Phage binding ELISA signal, Anti-PSMA Fab", "setting": "[2]", "value": 1.09}]}
{"binder": "YARECIPQWMCGGF", "note": "[Phage-3939]", "values": [{"measurement": "Phage binding ELISA signal, Anti-PSMA Fab with PSMA antigen", "setting": "[3]", "value": 0.0765}, {"measurement": "Phage binding ELISA signal, Anti-PSMA Fab", "setting": "[4]", "value": 0.918}]}
{"binder": "DSLVCQPRWMCVGF", "note": "[Phage-3945]", "values": [{"measurement": "Phage binding ELISA signal, Anti-PSMA Fab with PSMA antigen", "setting": "[3]", "value": 0.063}, {"measurement": "Phage binding ELISA signal, Anti-PSMA Fab", "setting": "[4]", "value": 0.895}]}
{"binder": "B2", "values": [{"measurement": "Phage binding ELISA signal, Anti-PSMA Fab", "setting": "[5]", "value": 0.971}]}
{"binder": "B3", "values": [{"measurement": "Phage binding ELISA signal, Anti-PSMA Fab in the presence of PSMA antigen", "setting": "[1]", "value": 0.0639}, {"measurement": "Phage binding ELISA signal, Anti-PSMA Fab", "setting": "[2]", "value": 1.09}]}
{"binder": "B4", "values": [{"measurement": "Phage binding ELISA signal, Anti-PSMA Fab in the presence of PSMA antigen", "setting": "[1]", "value": 0.062}, {"measurement": "Phage binding ELISA signal, Anti-PSMA Fab", "setting": "[2]", "value": 1.1}]}
{"binder": "GQIMCIPTWMCSGF", "note": "[Phage-3921]", "values": [{"measurement": "phage binding ELISA signal, Anti-PSMA Fab in the presence of PSMA", "setting": "[6]", "value": 0.0809}, {"measurement": "Phage binding ELISA signal, Anti-PSMA Fab", "setting": "[7]", "value": 0.98}]}
{"binder": "DQVMCIPRWMCEGF", "note": "[Phage-3943]", "values": [{"measurement": "Phage binding ELISA signal, Anti-PSMA Fab with PSMA antigen", "setting": "[3]", "value": 0.0676}, {"measurement": "Phage binding ELISA signal, Anti-PSMA Fab", "setting": "[4]", "value": 0.904}]}
{"binder": "B5", "values": [{"measurement": "Phage binding ELISA signal, Anti-PSMA Fab", "setting": "[5]", "value": 0.977}]}
{"binder": "B6", "values": [{"measurement": "Phage binding ELISA signal, Anti-PSMA Fab in the presence of PSMA antigen", "setting": "[1]", "value": 0.0619}, {"measurement": "Phage binding ELISA signal, Anti-PSMA Fab", "setting": "[2]", "value": 1.08}]}
{"binder": "TQVKCIPLWMCDGF", "note": "[Phage-3947]", "values": [{"measurement": "Phage binding ELISA signal, Anti-PSMA Fab with PSMA antigen", "setting": "[3]", "value": 0.0544}, {"measurement": "Phage binding ELISA signal, Anti-PSMA Fab", "setting": "[4]", "value": 0.885}]}
{"binder": "B7", "values": [{"measurement": "Phage binding ELISA signal, Anti-PSMA Fab", "setting": "[5]", "value": 0.965}]}
{"binder": "GDIQCRPLWMCDGL", "note": "[Phage-3942]", "values": [{"measurement": "Phage binding ELISA signal, Anti-PSMA Fab with PSMA antigen", "setting": "[3]", "value": 0.128}, {"measurement": "Phage binding ELISA signal, Anti-PSMA Fab", "setting": "[4]", "value": 0.907}]}
{"binder": "EFRECRPPWMCQGL", "note": "[Phage-3944]", "values": [{"measurement": "Phage binding ELISA signal, Anti-PSMA Fab with PSMA antigen", "setting": "[3]", "value": 0.0789}, {"measurement": "Phage binding ELISA signal, Anti-PSMA Fab", "setting": "[4]", "value": 0.899}]}
{"binder": "LVRMCQPPWMCDGF", "note": "[Phage-3941]", "values": [{"measurement": "Phage binding ELISA signal, Anti-PSMA Fab with PSMA antigen", "setting": "[3]", "value": 0.0699}, {"measurement": "Phage binding ELISA signal, Anti-PSMA Fab", "setting": "[4]", "value": 0.912}]}
{"binder": "B8", "values": [{"measurement": "Phage binding ELISA signal, Anti-PSMA Fab in the presence of PSMA antigen", "setting": "[1]", "value": 0.0633}, {"measurement": "Phage binding ELISA signal, Anti-PSMA Fab", "setting": "[2]", "value": 1.08}]}
{"binder": "B9", "values": [{"measurement": "Phage binding ELISA signal, Anti-PSMA Fab in the presence of PSMA antigen", "setting": "[1]", "value": 0.0801}, {"measurement": "Phage binding ELISA signal, Anti-PSMA Fab", "setting": "[2]", "value": 1.1}]}
{"binder": "ESRACVPNWMCHGL", "note": "[Phage-3911]", "values": [{"measurement": "phage binding ELISA signal, Anti-PSMA Fab in the presence of PSMA", "setting": "[6]", "value": 0.06}, {"measurement": "Phage binding ELISA signal, Anti-PSMA Fab", "setting": "[7]", "value": 1.03}]}
{"binder": "B10", "values": [{"measurement": "Phage binding ELISA signal, Anti-PSMA Fab", "setting": "[5]", "value": 0.972}]}
{"binder": "B11", "values": [{"measurement": "Phage binding ELISA signal, Anti-PSMA Fab in the presence of PSMA antigen", "setting": "[1]", "value": 0.0774}, {"measurement": "Phage binding ELISA signal, Anti-PSMA Fab", "setting": "[2]", "value": 1.1}]}
{"binder": "QNFHCVPQWMCDWL", "note": "[Phage-3913]", "values": [{"measurement": "phage binding ELISA signal, Anti-PSMA Fab in the presence of PSMA", "setting": "[6]", "value": 0.0986}, {"measurement": "Phage binding ELISA signal, Anti-PSMA Fab", "setting": "[7]", "value": 1.02}]}
{"binder": "MSPMCSPSWMCMGF", "note": "[Phage-3919]", "values": [{"measurement": "phage binding ELISA signal, Anti-PSMA Fab in the presence of PSMA", "setting": "[6]", "value": 0.0911}, {"measurement": "Phage binding ELISA signal, Anti-PSMA Fab", "setting": "[7]", "value": 0.993}]}
{"binder": "YNQYCTPLWMCEGF", "note": "[Phage-3924]", "values": [{"measurement": "phage binding ELISA signal, Anti-PSMA Fab in the presence of PSMA", "setting": "[6]", "value": 0.0796}, {"measurement": "Phage binding ELISA signal, Anti-PSMA Fab", "setting": "[7]", "value": 0.977}]}
{"binder": "B12", "values": [{"measurement": "Phage binding ELISA signal, Anti-PSMA Fab", "setting": "[5]", "value": 0.921}]}
{"binder": "AQVLCVPNWMCTGF", "note": "[Phage-3920]", "values": [{"measurement": "phage binding ELISA signal, Anti-PSMA Fab in the presence of PSMA", "setting": "[6]", "value": 0.0618}, {"measurement": "Phage binding ELISA signal, Anti-PSMA Fab", "setting": "[7]", "value": 0.985}]}
